# In article PMC11574045, “A cofactor-induced repressive type of transcription factor condensation can be induced by synthetic peptides to suppress tumorigenesis” (The EMBO Journal, 2024):
# Test system: HEK293FT cells transfected with TF library
# Test: Screening of TF condensates based on fluorescent puncta
# Format: cell-based
# Details: Figure 1B numerical data; TF library screen, one value per transcriptional factor
# In short: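 Each TF construct was introduced into HEK293FT cells using PEI at 4.8 μg/ml; glucose deprivation versus normal medium lasted 12 h. Automated confocal-style imaging of tagged TF staining, 50 fields per well, gave the puncta data.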
row,Molecule,Z score of condensed fraction
1,"RFC1 (protein, UniProt P35251 1-1148, looked up) Replication factor C subunit 1: MDIRKFFGVIPSGKKLVSETVKKNEKTKSDEETLKAKKGIKEIKVNSSRKEDDFKQKQPSKKKRIIYDSDSESEETLQVKNAKKPPEKLPVSSKPGKISRQDPVTYISETDEEDDFMCKKAASKSKENGRSTNSHLGTSNMKKNEENTKTKNKPLSPIKLTPTSVLDYFGTGSVQRSNKKMVASKRKELSQNTDESGLNDEAIAKQLQLDEDAELERQLHEDEEFARTLAMLDEEPKTKKARKDTEAGETFSSVQANLSKAEKHKYPHKVKTAQVSDERKSYSPRKQSKYESSKESQQHSKSSADKIGEVSSPKASSKLAIMKRKEESSYKEIEPVASKRKENAIKLKGETKTPKKTKSSPAKKESVSPEDSEKKRTNYQAYRSYLNREGPKALGSKEIPKGAENCLEGLIFVITGVLESIERDEAKSLIERYGGKVTGNVSKKTNYLVMGRDSGQSKSDKAAALGTKIIDEDGLLNLIRTMPGKKSKYEIAVETEMKKESKLERTPQKNVQGKRKISPSKKESESKKSRPTSKRDSLAKTIKKETDVFWKSLDFKEQVAEETSGDSKARNLADDSSENKVENLLWVDKYKPTSLKTIIGQQGDQSCANKLLRWLRNWQKSSSEDKKHAAKFGKFSGKDDGSSFKAALLSGPPGVGKTTTASLVCQELGYSYVELNASDTRSKSSLKAIVAESLNNTSIKGFYSNGAASSVSTKHALIMDEVDGMAGNEDRGGIQELIGLIKHTKIPIICMCNDRNHPKIRSLVHYCFDLRFQRPRVEQIKGAMMSIAFKEGLKIPPPAMNEIILGANQDIRQVLHNLSMWCARSKALTYDQAKADSHRAKKDIKMGPFDVARKVFAAGEETAHMSLVDKSDLFFHDYSIAPLFVQENYIHVKPVAAGGDMKKHLMLLSRAADSICDGDLVDSQIRSKQNWSLLPAQAIYASVLPGELMRGYMTQFPTFPSWLGKHSSTGKHDRIVQDLALHMSLRTYSSKRTVNMDYLSLLRDALVQPLTSQGVDGVQDVVALMDTYYLMKEDFENIMEISSWGGKPSPFSKLDPKVKAAFTRAYNKEAHLTPYSLQAIKASRHSTSPSLDSEYNEELNEDDSQSDEKDQDAIETDAMIKKKTKSSKPSKPEKDKEPRKGKGKSSKK",2.906
2,"RHOXF1 (protein, UniProt Q8NHV9 1-184, looked up) Rhox homeobox family member 1: MARSLVHDTVFYCLSVYQVKISPTPQLGAASSAEGHVGQGAPGLMGNMNPEGGVNHENGMNRDGGMIPEGGGGNQEPRQQPQPPPEEPAQAAMEGPQPENMQPRTRRTKFTLLQVEELESVFRHTQYPDVPTRRELAENLGVTEDKVRVWFKNKRARCRRHQRELMLANELRADPDDCVYIVVD",-0.9364
3,"BATF2 (protein, UniProt Q8N1L9 1-274, looked up) Basic leucine zipper …: MHLCGGNGLLTQTDPKEQQRQLKKQKNRAAAQRSRQKHTDKADALHQQHESLEKDNLALRKEIQSLQAELAWWSRTLHVHERLCPMDCASCSAPGLLGCWDQAEGLLGPGPQGQHGCREQLELFQTPGSCYPAQPLSPGPQPHDSPSLLQCPLPSLSLGPAVVAEPPVQLSPSPLLFASHTGSSLQGSSSKLSALQPSLTAQTAPPQPLELEHPTRGKLGSSPDNPSSALGLARLQSREHKPALSAATWQGLVVDPSPHPLLAFPLLSSAQVHF",-1.083
4,"RHOXF2 (protein, UniProt Q9BQY4 1-288, looked up) Rhox homeobox family member 2: MEPPDQCSQYMTSLLSPAVDDEKELQDMNAMVLSLTEEVKEEEEDAQPEPEQGTAAGEKLKSAGAQGGEEKDGGGEEKDGGGAGVPGHLWEGDLEGTSGSDGNVEDSDQSEKEPGQQYSRPQGAVGGLEPGNAQQPNVHAFTPLQLQELERIFQREQFPSEFLRRRLARSMNVTELAVQIWFENRRAKWRRHQRALMARNMLPFMAVGQPVMVTAAEAITAPLFISGMRDDYFWDHSHSSSLCFPMPPFPPPSLPLPLMLLPPMPPAGQAEFGPFPFVIVPSFTFPNV",1.459
5,"RFX4 (protein, UniProt Q33E94 1-735, looked up) Transcription factor RFX4: MHCGLLEEPDMDSTESWIERCLNESENKRYSSHTSLGNVSNDENEEKENNRASKPHSTPATLQWLEENYEIAEGVCIPRSALYMHYLDFCEKNDTQPVNAASFGKIIRQQFPQLTTRRLGTRGQSKYHYYGIAVKESSQYYDVMYSKKGAAWVSETGKKEVSKQTVAYSPRSKLGTLLPEFPNVKDLNLPASLPEEKVSTFIMMYRTHCQRILDTVIRANFDEVQSFLLHFWQGMPPHMLPVLGSSTVVNIVGVCDSILYKAISGVLMPTVLQALPDSLTQVIRKFAKQLDEWLKVALHDLPENLRNIKFELSRRFSQILRRQTSLNHLCQASRTVIHSADITFQMLEDWRNVDLNSITKQTLYTMEDSRDEHRKLITQLYQEFDHLLEEQSPIESYIEWLDTMVDRCVVKVAAKRQGSLKKVAQQFLLMWSCFGTRVIRDMTLHSAPSFGSFHLIHLMFDDYVLYLLESLHCQERANELMRAMKGEGSTAEVREEIILTEAAAPTPSPVPSFSPAKSATSVEVPPPSSPVSNPSPEYTGLSTTGAMQSYTWSLTYTVTTAAGSPAENSQQLPCMRNTHVPSSSVTHRIPVYPHREEHGYTGSYNYGSYGNQHPHPMQSQYPALPHDTAISGPLHYAPYHRSSAQYPFNSPTSRMEPCLMSSTPRLHPTPVTPRWPEVPSANTCYTSPSVHSARYGNSSDMYTPLTTRRNSEYEHMQHFPGFAYINGEASTGWAK",-0.3239
6,"RNF14 (protein, UniProt Q9UBS8 1-474, looked up) E3 ubiquitin-protein ligase …: MSSEDREAQEDELLALASIYDGDEFRKAESVQGGETRIYLDLPQNFKIFVSGNSNECLQNSGFEYTICFLPPLVLNFELPPDYPSSSPPSFTLSGKWLSPTQLSALCKHLDNLWEEHRGSVVLFAWMQFLKEETLAYLNIVSPFELKIGSQKKVQRRTAQASPNTELDFGGAAGSDVDQEEIVDERAVQDVESLSNLIQEILDFDQAQQIKCFNSKLFLCSICFCEKLGSECMYFLECRHVYCKACLKDYFEIQIRDGQVQCLNCPEPKCPSVATPGQVKELVEAELFARYDRLLLQSSLDLMADVVYCPRPCCQLPVMQEPGCTMGICSSCNFAFCTLCRLTYHGVSPCKVTAEKLMDLRNEYLQADEANKRLLDQRYGKRVIQKALEEMESKEWLEKNSKSCPCCGTPIEKLDGCNKMTCTGCMQYFCWICMGSLSRANPYKHFNDPGSPCFNRLFYAVDVDDDIWEDEVED",0.4543
7,"RFX1 (protein, UniProt P22670 1-979, looked up) MHC class II regulatory …: MATQAYTELQAAPPPSQPPQAPPQAQPQPPPPPPPAAPQPPQPPTAAATPQPQYVTELQSPQPQAQPPGGQKQYVTELPAVPAPSQPTGAPTPSPAPQQYIVVTVSEGAMRASETVSEASPGSTASQTGVPTQVVQQVQGTQQRLLVQTSVQAKPGHVSPLQLTNIQVPQQALPTQRLVVQSAAPGSKGGQVSLTVHGTQQVHSPPEQSPVQANSSSSKTAGAPTGTVPQQLQVHGVQQSVPVTQERSVVQATPQAPKPGPVQPLTVQGLQPVHVAQEVQQLQQVPVPHVYSSQVQYVEGGDASYTASAIRSSTYSYPETPLYTQTASTSYYEAAGTATQVSTPATSQAVASSGSMPMYVSGSQVVASSTSTGAGASNSSGGGGSGGGGGGGGGGGGGGSGSTGGGGSGAGTYVIQGGYMLGSASQSYSHTTRASPATVQWLLDNYETAEGVSLPRSTLYCHYLLHCQEQKLEPVNAASFGKLIRSVFMGLRTRRLGTRGNSKYHYYGLRIKASSPLLRLMEDQQHMAMRGQPFSQKQRLKPIQKMEGMTNGVAVGQQPSTGLSDISAQVQQYQQFLDASRSLPDFTELDLQGKVLPEGVGPGDIKAFQVLYREHCEAIVDVMVNLQFTLVETLWKTFWRYNLSQPSEAPPLAVHDEAEKRLPKAILVLLSKFEPVLQWTKHCDNVLYQGLVEILIPDVLRPIPSALTQAIRNFAKSLESWLTHAMVNIPEEMLRVKVAAAGAFAQTLRRYTSLNHLAQAARAVLQNTAQINQMLSDLNRVDFANVQEQASWVCRCEDRVVQRLEQDFKVTLQQQNSLEQWAAWLDGVVSQVLKPYQGSAGFPKAAKLFLLKWSFYSSMVIRDLTLRSAASFGSFHLIRLLYDEYMYYLIEHRVAQAKGETPIAVMGEFANLATSLNPLDPDKDEEEEEEEESEDELPQDISLAAGGESPALGPETLEPPAKLARTDARGLFVQALPSS",-0.4637
8,"R-LIM (protein, UniProt Q9NVW2 1-624, looked up) E3 ubiquitin-protein ligase …: MENSDSNDKGSGDQSAAQRRSQMDRLDREEAFYQFVNNLSEEDYRLMRDNNLLGTPGESTEEELLRRLQQIKEGPPPQNSDENRGGDSSDDVSNGDSIIDWLNSVRQTGNTTRSGQRGNQSWRAVSRTNPNSGDFRFSLEINVNRNNGSQNSENENEPSARRSSGENVENNSQRQVENPRSESTSARPSRSERNSTEALTEVPPTRGQRRARSRSPDHRRTRARAERSRSPLHPMSEIPRRSHHSISSQTFEHPLVNETEGSSRTRHHVTLRQQISGPELLSRGLFAASGTRNASQGAGSSDTAASGESTGSGQRPPTIVLDLQVRRVRPGEYRQRDSIASRTRSRSQTPNNTVTYESERGGFRRTFSRSERAGVRTYVSTIRIPIRRILNTGLSETTSVAIQTMLRQIMTGFGELSYFMYSDSDSEPTGSVSNRNMERAESRSGRGGSGGGSSSGSSSSSSSSSSSSSSSSSSSSPSSSSGGESSETSSDLFEGSNEGSSSSGSSGARREGRHRAPVTFDESGSLPFLSLAQFFLLNEDDDDQPRGLTKEQIDNLAMRSFGENDALKTCSVCITEYTEGNKLRKLPCSHEYHVHCIDRWLSENSTCPICRRAVLASGNRESVV",-0.6236
9,"RFXDC1 (protein, UniProt Q8HWS3 1-928, looked up) DNA-binding protein RFX6: MAKVPELEDTFLQAQPAPQLSPGIQEDCCVQLLGKGLLVYPEETVYLAAEGQPGGEQGGGEKGEDPELPGAVKSEMHLNNGNFSSEEEDADNHDSKTKAADQYLSQKKTITQIVKDKKKQTQLTLQWLEENYIVCEGVCLPRCILYAHYLDFCRKEKLEPACAATFGKTIRQKFPLLTTRRLGTRGHSKYHYYGIGIKESSAYYHSVYSGKGLTRFSGSKLKNEGGFTRKYSLSSKTGTLLPEFPSAQHLVYQGCISKDKVDTLIMMYKTHCQCILDNAINGNFEEIQHFLLHFWQGMPDHLLPLLENPVIIDIFCVCDSILYKVLTDVLIPATMQEMPESLLADIRNFAKNWEQWVVSSLENLPEALTDKKIPIVRRFVSSLKRQTSFLHLAQIARPALFDQHVVNSMVSDIERVDLNSIGSQALLTISGSTDTESGIYTEHDSITVFQELKDLLKKNATVEAFIEWLDTVVEQRVIKTSKQNGRSLKKRAQDFLLKWSFFGARVMHNLTLNNASSFGSFHLIRMLLDEYILLAMETQFNNDKEQELQNLLDKYMKNSDASKAAFTASPSSCFLANRNKGSMVSSDAVKNESHVETTYLPLPSSQPGGLGPALHQFPAGNTDNMPLTGQMELSQIAGHLMTPPISPAMASRGSVINQGPMAGRPPSVGPVLSAPSHCSTYPEPIYPTLPQANHDFYSTSSNYQTVFRAQPHSTSGLYPHHTEHGRCMAWTEQQLSRDFFSGSCAGSPYNSRPPSSYGPSLQAQDSHNMQFLNTGSFNFLSNTGAASCQGATLPPNSPNGYYGSNINYPESHRLGSMVNQHVSVISSIRSLPPYSDIHDPLNILDDSGRKQTSSFYTDTSSPVACRTPVLASSLQTPIPSSSSQCMYGTSNQYPAQETLDSHGTSSREMVSSLPPINTVFMGTAAGGT",3.216
